Experimental data as given in patent US20220119513A1 (ZOETIS SERVICES, published 2022).

How the values were obtained:
TGFβ3 (R&D Systems) = biological target: T1, TGFβ3 (R&D Systems) (Homo sapiens (Human), UniProt P10600 301-412, Active TGFβ3 is a disulfide-linked homodimer of this chain; one copy is given.); assay: SPR
T1 construct: also called TGFB3
T1 sequence: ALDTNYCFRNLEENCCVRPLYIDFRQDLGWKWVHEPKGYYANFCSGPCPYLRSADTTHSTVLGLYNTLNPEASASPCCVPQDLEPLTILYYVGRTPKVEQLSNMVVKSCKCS

TGFβ1 (R&D Systems) [1] = biological target: T2, TGFβ1 (R&D Systems); assay: SPR full titration
T2 construct: also called TGFB1
T2 sequence (P01137 279-390): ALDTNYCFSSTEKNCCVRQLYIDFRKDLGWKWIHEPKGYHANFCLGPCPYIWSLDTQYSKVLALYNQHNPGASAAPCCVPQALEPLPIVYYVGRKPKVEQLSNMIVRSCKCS

TGFβ1 (R&D Systems) [2] = biological target: T2, TGFβ1 (R&D Systems); assay: single point SPR
TGFβ1 (R&D Systems) [3] = biological target: T2, TGFβ1 (R&D Systems); assay: cell-based or functional assay
TGFβ1 (R&D Systems) [4] = biological target: T2, TGFβ1 (R&D Systems); assay: SPR full titration; remark: listed apart in the source

B1: felHclb_heterochimera-14 (antibody, V domains shown)
VH: QVLLVQSGAEVRTPGASVKIFCKASGYIFITYYMHWVRQSPAQGLEWMGQIFPASGSTNYNEMFEGRLTLTADTSTNTAYMELSSLRSADTAMYYCARGDGNYALDAMDYWGQGTSVTVSS
VL: DIVLTQTPASLAVSLGQRATISCRASESVDSYGNSFMHWYQQKSGQPPKLLIYLASNLESGVPARFSGSGSRTDFTLTIDPVEADDAATYYCQQNNEDPLTFGAGTK
notes: hetero-pairing; also called felHclbH1-1x/mHclbVL
B1: no binding (TGFβ3 (R&D Systems)).

B2: felHclb_heterochimera-4 (antibody, V domains shown)
VH: QVLLVQSGAEVRTPGASVKIFCKASGYIFITYYMHWVRQSPAQGLEWMGQIFPASGSTNYNEMFEGRLTLTADTSTNTAYMELSSLRSADTAMYYCARGDGNYALDAMDYWGQGTSVTVSS
VL: DIVMTQTPPSLSVSPRETASISCRASESVDSYGNSFMHWYLQKPGQSPQLLIYLASNLESGVSDRFSGSGSGTDFTLRISRVEANDTGVYYCQQNNEDPLTFGQ
notes: hetero-pairing
B2: no binding (TGFβ3 (R&D Systems)).

B3: felHclb_heterochimera-15 (antibody, V domains shown)
VH: QVLLVQSGAEVRKPGASVKIFCKASGYTFITYYMHWLRQAPEQGLEWMGRIFPASGSTSYAQKFQGRLTLTADTSTNTAYMELSSLRSADTAMYYCARGDGNYALDAMDYWGQGALVTVSS
VL: DIVLTQTPASLAVSLGQRATISCRASESVDSYGNSFMHWYQQKSGQPPKLLIYLASNLESGVPARFSGSGSRTDFTLTIDPVEADDAATYYCQQNNEDPLTFGAGTK
notes: hetero-pairing; also called felHclbH618s/mHclbVL
B3: no binding (TGFβ3 (R&D Systems)).

B4: felHclb_heterochimera-11 (antibody, V domains shown)
VH: QVLLVQSGAEVRRPGASVKIFCKASGYIFITYYMHWLRQAPAQGFEWMGSIFPASGSTSYAQKFQGRLTLTADTSTDTAYMELSSLRSADTAVYYCARGDGNYALDAMDYWGHGTIVTVSS
VL: DIVLTQTPASLAVSLGQRATISCRASESVDSYGNSFMHWYQQKSGQPPKLLIYLASNLESGVPARFSGSGSRTDFTLTIDPVEADDAATYYCQQNNEDPLTFGAGTK
notes: hetero-pairing; also called felHclbH636/mHclbVL
B4: no binding (TGFβ3 (R&D Systems)).

B5: felHclb_heterochimera-16 (antibody, V domains shown)
VH: QVLLVQSGAEVRKPGASVKIFCKASGYTFITYYMHWLRQAPEQGLEWMGQIFPASGSTNYNEMFEGRLTLTADTSTNTAYMELSSLRSADTAMYYCARGDGNYALDAMDYWGQGALVTVSS
VL: DIVLTQTPASLAVSLGQRATISCRASESVDSYGNSFMHWYQQKSGQPPKLLIYLASNLESGVPARFSGSGSRTDFTLTIDPVEADDAATYYCQQNNEDPLTFGAGTK
notes: hetero-pairing; also called felHclbH618x/mHclbVL
B5: no binding (TGFβ3 (R&D Systems)).

B6: felHclb_heterochimera-2 (antibody, V domains shown)
VH: QVLLVQSGAEVRTPGASVKIFCKASGYIFITYYMHWVRQSPAQGLEWMGSIFPASGSTSYAQKFQGRLTLTADTSTNTAYMELSSLRSADTAMYYCARGDGNYALDAMDYWGQGTSVTVSS
VL: DIVMTQTPPSLSVSPRETASISCRASESVDSYGNSFMHWYLQKPGQSPQLLIYLASNLESGVSDRFSGSGSGTDFTLRISRVEANDTGVYYCQQNNEDPLTFGQ
notes: hetero-pairing
B6: no binding (TGFβ3 (R&D Systems)).

B7: felHclb_heterochimera-13 (antibody, V domains shown)
VH: QVLLVQSGAEVRRPGASVKIFCKASGYIFITYYMHWLRQAPAQGFEWMGQIFPASGSTNYNEMFEGRLTLTADTSTDTAYMELSSLRSADTAVYYCARGDGNYALDAMDYWGHGTIVTVSS
VL: DIVLTQTPASLAVSLGQRATISCRASESVDSYGNSFMHWYQQKSGQPPKLLIYLASNLESGVPARFSGSGSRTDFTLTIDPVEADDAATYYCQQNNEDPLTFGAGTK
notes: hetero-pairing; also called felHclbH636x/mHclbVL
B7: no binding (TGFβ3 (R&D Systems)).

B8: felHclb_heterochimera-12 (antibody, V domains shown)
VH: QVLLVQSGAEVRTPGASVKIFCKASGYIFITYYMHWVRQSPAQGLEWMGSIFPASGSTSYAQKFQGRLTLTADTSTNTAYMELSSLRSADTAMYYCARGDGNYALDAMDYWGQGTSVTVSS
VL: DIVLTQTPASLAVSLGQRATISCRASESVDSYGNSFMHWYQQKSGQPPKLLIYLASNLESGVPARFSGSGSRTDFTLTIDPVEADDAATYYCQQNNEDPLTFGAGTK
notes: hetero-pairing; also called felHclbH1-1/mHclbVL
B8: no binding (TGFβ3 (R&D Systems)).

B9: felHclb_heterochimera-1 (antibody, V domains shown)
VH: QVLLVQSGAEVRRPGASVKIFCKASGYIFITYYMHWLRQAPAQGFEWMGSIFPASGSTSYAQKFQGRLTLTADTSTDTAYMELSSLRSADTAVYYCARGDGNYALDAMDYWGHGTIVTVSS
VL: DIVMTQTPPSLSVSPRETASISCRASESVDSYGNSFMHWYLQKPGQSPQLLIYLASNLESGVSDRFSGSGSGTDFTLRISRVEANDTGVYYCQQNNEDPLTFGQ
notes: hetero-pairing
B9: no binding (TGFβ3 (R&D Systems)).

B10: felHclb_heterochimera-5 (antibody, V domains shown)
VH: QVLLVQSGAEVRKPGASVKIFCKASGYTFITYYMHWLRQAPEQGLEWMGRIFPASGSTSYAQKFQGRLTLTADTSTNTAYMELSSLRSADTAMYYCARGDGNYALDAMDYWGQGALVTVSS
VL: DIVMTQTPPSLSVSPRETASISCRASESVDSYGNSFMHWYLQKPGQSPQLLIYLASNLESGVSDRFSGSGSGTDFTLRISRVEANDTGVYYCQQNNEDPLTFGQ
notes: hetero-pairing
B10: no binding (TGFβ3 (R&D Systems)).

B11: Can-SL501-VH3 Y111T / Can-SL501-VL2 (antibody, V domains shown)
VH: EVQLVESGGDLVKPGGSLRLSCVASGFTFSSYGMHWVRQAPGKELEWVAVISYDGSIKYYADAVKGRFTISRDNAKNTLYLQMNSLRAEDTAVYYCARTGEYSGYDTDPQTSWGQGTTVTVSS
VL: EIVMTQSPGSLAGSAGESVSINCRASQGIGDDLGWYQQKPGERPKLLIYGTSTLQSGVPARFSSSGSGTDFTLTINNLQAEDVGDYYCLQDSNYPLTFGAGTK
In the case of B11, the Kd (TGFβ1 (R&D Systems) [1]) is reported as 0.0235 nM, the Kd (TGFβ1 (R&D Systems) [2]) is reported as 0.457 nM and the “CMVIC pSmad-3, IC50” value (TGFβ1 (R&D Systems) [3]) is reported as 19.6 nM.

B12: Can-SL501-VH3 S112E / Can-SL501-VL2 (antibody, V domains shown)
VH: EVQLVESGGDLVKPGGSLRLSCVASGFTFSSYGMHWVRQAPGKELEWVAVISYDGSIKYYADAVKGRFTISRDNAKNTLYLQMNSLRAEDTAVYYCARTGEYSGYDTDPQYEWGQGTTVTVSS
VL: EIVMTQSPGSLAGSAGESVSINCRASQGIGDDLGWYQQKPGERPKLLIYGTSTLQSGVPARFSSSGSGTDFTLTINNLQAEDVGDYYCLQDSNYPLTFGAGTK
In the case of B12, the Kd (TGFβ1 (R&D Systems) [1]) is reported as 0.0153 nM, the Kd (TGFβ1 (R&D Systems) [2]) is reported as 0.487 nM and the “CMVIC pSmad-3, IC50” value (TGFβ1 (R&D Systems) [3]) is reported as 5.03 nM.

B13: Can-SL501-VH1/Chimera-SL501-VL (antibody, V domains shown)
VH: EVQLVESGGDLVKPGGSLRLSCVASGFTFSSYGMHWVRQAPGKGLQWVAVISYDGSIKYYTDAVKGRFTISRDNARNTVYLQMNSLRAEDTAVYYCAKTGEYSGYDTDPQYSWGQGTLVTVSS
VL: EIVLTQSPSSLSASVGDRVTITCRASQGIGDDLGWYQQKPGKAPILLIYGTSTLQSGVPSRFSGSGSGTDFTLTINSLQPEDFATYYCLQDSNYPLTFGGGTK
notes: also called heterochimeric SL501
For B13, the Kd (TGFβ1 (R&D Systems) [4]) was 1100 nM.

B14: Can-SL501-VH3 S112Q / Can-SL501-VL2 (antibody, V domains shown)
VH: EVQLVESGGDLVKPGGSLRLSCVASGFTFSSYGMHWVRQAPGKELEWVAVISYDGSIKYYADAVKGRFTISRDNAKNTLYLQMNSLRAEDTAVYYCARTGEYSGYDTDPQYQWGQGTTVTVSS
VL: EIVMTQSPGSLAGSAGESVSINCRASQGIGDDLGWYQQKPGERPKLLIYGTSTLQSGVPARFSSSGSGTDFTLTINNLQAEDVGDYYCLQDSNYPLTFGAGTK
B14 was tested, and the Kd (TGFβ1 (R&D Systems) [1]) was 0.00909 nM, the Kd (TGFβ1 (R&D Systems) [2]) was 4.8 nM and the “CMVIC pSmad-3, IC50” value (TGFβ1 (R&D Systems) [3]) was 5.02 nM.

B15: Can-SL501-VH3 S112D / Can-SL501-VL2 (antibody, V domains shown)
VH: EVQLVESGGDLVKPGGSLRLSCVASGFTFSSYGMHWVRQAPGKELEWVAVISYDGSIKYYADAVKGRFTISRDNAKNTLYLQMNSLRAEDTAVYYCARTGEYSGYDTDPQYDWGQGTTVTVSS
VL: EIVMTQSPGSLAGSAGESVSINCRASQGIGDDLGWYQQKPGERPKLLIYGTSTLQSGVPARFSSSGSGTDFTLTINNLQAEDVGDYYCLQDSNYPLTFGAGTK
B15 was tested, and the Kd (TGFβ1 (R&D Systems) [1]) was 0.0196 nM, the Kd (TGFβ1 (R&D Systems) [2]) was 7 nM and the “CMVIC pSmad-3, IC50” value (TGFβ1 (R&D Systems) [3]) was 8.78 nM.

B16: Chimera-SL501-VH/Can-SL501-VL2 (antibody, V domains shown)
VH: EVQLVESGGGVVQPGRSLRLSCAASGFTFSSYGMHWVRQAPGKELEWVAVISYDGSIKYYADSVKGRFTISRDNSKNTLYLQMNSLRAEDTAVYYCARTGEYSGYDTDPQYSWGQGTTVTVSS
VL: EIVMTQSPGSLAGSAGESVSINCRASQGIGDDLGWYQQKPGERPKLLIYGTSTLQSGVPARFSSSGSGTDFTLTINNLQAEDVGDYYCLQDSNYPLTFGAGTK
notes: as for B13
Binder B16 has a Kd (TGFβ1 (R&D Systems) [4]) of 0.000192 nM.

B17: Chimera-SL501-VH/Can-SL501-VL1 (antibody, V domains shown)
VH: EVQLVESGGGVVQPGRSLRLSCAASGFTFSSYGMHWVRQAPGKELEWVAVISYDGSIKYYADSVKGRFTISRDNSKNTLYLQMNSLRAEDTAVYYCARTGEYSGYDTDPQYSWGQGTTVTVSS
VL: EIVMTQSPASLSLSQEEKVTITCRASQGIGDDLGWYQQKPGQAPKLLIYGTSTLQSGVPSRFSGSGSGTDFSFTISSLEPEDVAVYYCLQDSNYPLTFGAGTK
notes: as for B13
B17 was tested, and the Kd (TGFβ1 (R&D Systems) [4]) was 60.8 nM.

B18: Can-SL501-VH3 Y111E / Can-SL501-VL2 (antibody, V domains shown)
VH: EVQLVESGGDLVKPGGSLRLSCVASGFTFSSYGMHWVRQAPGKELEWVAVISYDGSIKYYADAVKGRFTISRDNAKNTLYLQMNSLRAEDTAVYYCARTGEYSGYDTDPQESWGQGTTVTVSS
VL: EIVMTQSPGSLAGSAGESVSINCRASQGIGDDLGWYQQKPGERPKLLIYGTSTLQSGVPARFSSSGSGTDFTLTINNLQAEDVGDYYCLQDSNYPLTFGAGTK
B18 was tested, and the Kd (TGFβ1 (R&D Systems) [1]) was 0.0238 nM, the Kd (TGFβ1 (R&D Systems) [2]) was 4.98 nM and the “CMVIC pSmad-3, IC50” value (TGFβ1 (R&D Systems) [3]) was 46.9 nM.

B19: Can-SL501_VH2/Chimera-SL501-VL (antibody, V domains shown)
VH: EVQLVESGGDLVKPGGSLRLSCVASGFTFSSYGMHWVRQAPGKGLQWVAVISYDGSIKYYADAVKGRFTISRDNAKNTLYLQMNSLRAEDTAMYYCAKTGEYSGYDTDPQYSWGQGTLVTVSS
VL: EIVLTQSPSSLSASVGDRVTITCRASQGIGDDLGWYQQKPGKAPILLIYGTSTLQSGVPSRFSGSGSGTDFTLTINSLQPEDFATYYCLQDSNYPLTFGGGTK
notes: as for B13
In the case of B19, the Kd (TGFβ1 (R&D Systems) [4]) is reported as 1090 nM.

B20: mouse SL501 (antibody, V domains shown)
VH: EVQLVESGGGVVQPGRSLRLSCAASGFTFSSYGMHWVRQAPGKELEWVAVISYDGSIKYYADSVKGRFTISRDNSKNTLYLQMNSLRAEDTAVYYCARTGEYSGYDTDPQYSWGQGTTVTVSS
VL: EIVLTQSPSSLSASVGDRVTITCRASQGIGDDLGWYQQKPGKAPILLIYGTSTLQSGVPSRFSGSGSGTDFTLTINSLQPEDFATYYCLQDSNYPLTFGGGTK
notes: called engineered mouse antibody and also precursor human antibody from phage display; also called mouse-SL501-VH/mouse-SL501-VL; SL501 (murine)
For B20, the Kd (TGFβ1 (R&D Systems) [4]) was 0.00705 nM.
